PMC8234983, “Unravelling the Complex Denaturant and Thermal-Induced Unfolding Equilibria of Human Phenylalanine Hydroxylase” (International Journal of Molecular Sciences, 2021)

B1: full-length human phenylalanine hydroxylase (PAHt, Met1-Lys452) (enzyme, UniProt P00439 1-452, looked up)
chain: MSTAVLENPGLGRKLSDFGQETSYIEDNCNQNGAISLIFSLKEEVGALAKVLRLFEENDVNLTHIESRPSRLKKDEYEFFTHLDKRSLPALTNIIKILRHDIGATVHELSRDKKKDTVPWFPRTIQELDRFANQILSYGAELDADHPGFKDPVYRARRKQFADIAYNYRHGQPIPRVEYMEEEKKTWGTVFKTLKSLYKTHACYEYNHIFPLLEKYCGFHEDNIPQLEDVSQFLQTCTGFRLRPVAGLLSSRDFLGGLAFRVFHCTQYIRHGSKPMYTPEPDICHELLGHVPLFSDRSFAQFSQEIGLASLGAPDEYIEKLATIYWFTVEFGLCKQGDSIKAYGAGLLSSFGELQYCLSEKPKLLPLELEKTAIQNYTVTEFQPLYYVAESFNDAKEKVRNFAATIPRPFSVRYDPYTQRIEVLDNTQQLKILADSINSEIGILCSALQKIK
notes: human phenylalanine hydroxylase (EC 1.14.16.1), full-length construction, residues Met 1-Lys 452; No Fe(II) was added to the recombinant protein; also called PAHt(1-452); full-length PAH
B2: double truncated human phenylalanine hydroxylase (PAHd, Gly103-Thr427; ΔN1-102/ΔC428-452) (domain or fragment, UniProt P00439 103-427, looked up)
chain: GATVHELSRDKKKDTVPWFPRTIQELDRFANQILSYGAELDADHPGFKDPVYRARRKQFADIAYNYRHGQPIPRVEYMEEEKKTWGTVFKTLKSLYKTHACYEYNHIFPLLEKYCGFHEDNIPQLEDVSQFLQTCTGFRLRPVAGLLSSRDFLGGLAFRVFHCTQYIRHGSKPMYTPEPDICHELLGHVPLFSDRSFAQFSQEIGLASLGAPDEYIEKLATIYWFTVEFGLCKQGDSIKAYGAGLLSSFGELQYCLSEKPKLLPLELEKTAIQNYTVTEFQPLYYVAESFNDAKEKVRNFAATIPRPFSVRYDPYTQRIEVLDNT
notes: lacks most of the regulatory and multimerization domains; essentially the catalytic domain; Residues 103-117 are missing in the 1J8T PDB file; also called PAHd(103-427); truncated PAHd

Legend:
[1] = biological target: P00439; assay: AUC; sedimentation velocity, 25 °C, 45,000 rpm, 8 µM subunit, incubated overnight in 5.4 M urea; c(s) analysis
[2] = biological target: P00439; assay: AUC; sedimentation velocity, 25 °C, 45,000 rpm, 8 µM subunit, incubated overnight in 7.4 M urea; c(s) analysis
[3] = biological target: the molecule itself; assay: AUC; sedimentation velocity, 25 °C, 45,000 rpm, 8 µM subunit, 0 M urea (native conditions); c(s) analysis
[4] = biological target: P00439; assay: as above

| Protein | percent of total protein signal as fast-sedimenting polydisperse species (aggregates) [1] | percent of total signal as aggregates [2] | stoichiometry N [3] | percent of total signal as aggregates [4] |
| --- | --- | --- | --- | --- |
| B1 | multiple species of fast sedimentation at a broad range of 10.2–27.9 S representing 98% of the total protein signal | The rest of the protein signal at this high urea concentration, 13%, corresponds to aggregates of fast sedimentation | 4 | aggregates (6% total) |
| B2 | from 9.6 S to 92.4 S and accounting for 98.3% of the total protein signal | The remaining 40% of the signal are species with sedimentation coefficients from 5.4 S to 18.8 S representing aggregates | 2 |  |
